Test results from patent publication US20220372084A1 (MJCELL BIO, published 2022).

Biological target: PA63 ligand (truncated 63 kDa portion of anthrax protective antigen), reagent conjugated with FITC (Bacillus anthracis, UniProt P13423 197-764)
Test: flow cytometry, FITC-conjugated PA63 on cell lines expressing ANTXR1 and ANTXR2

B1: ANTXR1 (anthrax toxin receptor 1) (receptor)
chain: not shown
notes: whole, on cells
  binding result: binds
